In patent US10337047:

T1: HNE specific peptide GSGSGGGAAPVAAKGGGSGSC (not fully specified)
T1 chain: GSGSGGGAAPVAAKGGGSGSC

B1: recombinant Human Neutrophil Elastase (HNE) (protein)
chain: IVGGRRARPHAWPFMVSLQLRGGHFCGATLIAPNFVMSAAHCVANVNVRAVRVVLGAHNLSRREPTRQVFAVQRIFENGYDPVNLLNDIVILQLNGSATINANVQVAQLPAQGRRLGNGVQCLAMGWGLLGRNRGIASVLQELNVTVVTSLCRRSNVCTLVRGRQAGVCFGDSGSPLVCNGLIHGIASFVRGGCASGLYPDAFAPVAQFVNWIDSIIQ
B2: recombinant Cathepsin-G enzyme (protein)
chain: IIGGRESRPHSRPYMAYLQIQSPAGQSRCGGFLVREDFVLTAAHCWGSNINVTLGAHNIQRRENTQQHITARRAIRHPQYNQRTIQNDIMLLQLSRRVRRNRNVNPVALPRAQEGLRPGTLCTVAGWGRVSMRRGTDTLREVQLRVQRDRQCLRIFGSYDPRRQICVGDRRERKAAFKGDSGGPLLCNNVAHGIVSYGKSSGVPPEVFTRVSSFLPWIRTTMRS

Biological target: T1, HNE specific peptide …

| Protein | cleavage on the multiplex sensor, HNE alone at 100 ng/mL | cleavage on the multiplex sensor, ratio 0 uL Cathepsin-G to 100 uL HNE | detection limit of cleavage in spiked saliva (colorimetric) | detection limit of proteolytic cleavage of the peptide-magnetic bead layer (colorimetric, visible bare gold surface) | cleavage on the multiplex sensor, Cathepsin-G alone at 100 ng/mL | cleavage on the multiplex sensor, ratio 100 uL Cathepsin-G to 0 uL HNE |
| --- | --- | --- | --- | --- | --- | --- |
| B1 | maximum reaction was seen in the bottom band containing HNE | maximum cleavage was seen on the HNE sensor (Bottom band) where a golden color change was visible | The limits of detection for both spiked proteases were comparable to those obtained with the purified proteases | detection limit to be as low as 1 pg/mL for HNE |  |  |
| B2 |  |  |  |  | there was no cleavage seen in the bottom band | there was no reaction seen on the HNE sensor (Bottom band) |
